The series has as its system human genomic DNA. Description: Nuclease assay of MIF and MIF2 on human genomic DNA (agarose gel). It counts as biochemical. Particulars: for concentration giving complete hgDNA cleavage: within 2 h, 37°C, Mg2+. As for the experimental part:
7. Nuclease activity of MIF and MIF2.
Human genomic DNA was obtained from RPE-1 cells by DNA extraction following the protocol described in literature.[10] The nuclease assays were conducted by following the procedure described previously.[8] hgDNA (200 ng/reaction) was incubated with MIF or MIF2 in final concentration of 0.62 -20 µM as indicated in 10Mm Tris-HCl buffer (pH 7.0) containing 10mM MgCl2 (B and C) or specific buffer as indicated at 37°C for two hours. The reaction was terminated with loading buffer containing 10mM EDTA and incubation on ice. The human genomic DNA samples were immediately separated on a 1% agarose gel containing SYBR Safe (ThermoFisher) in 0.5 X TBE buffer with initial switch time of 1.5 s and a final switch time of 3.5 s for 12 hours at 6 V/cm. DNA was further detected by chemiluminescence.
Figure S7. hgDNA cleavage activity of MIF and MIF2. (A) The MIF2 nuclease activity is Mg 2+- […]
BITC is a covalent inhibitor that can form covalent bond with the N-terminal proline.[11] (C) […]
(1 picture or pasted object on this page, not shown here)

B1: MIF: recombinant human macrophage migration inhibitory factor, tested as nuclease on hgDNA (protein, UniProt P14174 2-115, looked up)
Macrophage migration …: PMFIVNTNVPRASVPDGFLSELTQQLAQATGKPPQYIAVHVVPDQLMAFGGSSEPCALCSLHSIGKIGGAQNRSYSKLLCGLLAERLRISPDRVYINYYDMNAANVGWNNSTFA
Turning to B1, the “concentration giving complete hgDNA cleavage” value was 1.25 µM.

B2: MIF2: recombinant human MIF2 (D-dopachrome tautomerase), tested as nuclease on hgDNA (protein, UniProt P30046 2-118, looked up)
D-dopachrome decarboxylase: PFLELDTNLPANRVPAGLEKRLCAAAASILGKPADRVNVTVRPGLAMALSGSTEPCAQLSISSIGVVGTAEDNRSHSAHFFEFLTKELALGQDRILIRFFPLESWQIGKIGTVMTFL
As for B2, the “concentration giving complete hgDNA cleavage” value is “above 10 μM”. For the same molecule, for the setting “lower activity than MIF”, the “nuclease activity relative to MIF” value is on record as 10 fold.

The values above are taken from PMC9299485, “4‐Iodopyrimidine Labeling Reveals Nuclear Translocation and Nuclease Activity for Both MIF and MIF2” (Chemistry (Weinheim an Der Bergstrasse, Germany), 2021).
